Reference: publication PMC3354533

Biological target: endogenous calcineurin A (CaNA) in mouse primary cortical neurons (mouse (endogenous in primary cortical neurons)) (UniProt P63328)
Test: FRET or BRET

Substance | 565/522 ratio, spine, AD brain SEC fraction 60 min | FRET Ratio increase, cytoplasm, 6 hours of TgCM | FRET Ratio increase, nucleus, 6 hours of TgCM | peak of the FRET distribution in spines, 15 min of TgCM | peak of the FRET distribution in spines, 30 min of TgCM | peak of the FRET distribution in spines, 60 min of TgCM
endogenous calcineurin B subunit (CaNB) in mouse primary cortical neurons (from UniProt Q63810 1-170) (natural protein) | 0.451 | 0.51 | 0.49 | 0.45 | 0.48 | 0.48
endogenous calmodulin (CaM) in mouse primary cortical neurons (from UniProt P0DP26 1-149) (natural protein) |  |  |  | 0.38 | 0.39 | 0.4
